{"source": "patent US12723246", "about": "(UNIVERSITY OF MASSACHUSETTS, dated 2026)", "target": "the molecule itself", "test": "negative-stain EM of the precipitate formed after tag cleavage; self-assembly into capsid-like structures", "excerpt": "Given that dArc Iresembles a Gag protein, and that retroviral Gag proteins have the ability to auto-assemble into capsids, the precipitate was examined at the EM level by negative staining. The presence of round structures of about 39.3±5.2 nm was seen, which resembled HIV capsids. FIGS. 8A and 8B.", "data": [{"protein": "purified dArc1 protein, bacterially produced, after cleavage of the HIS-MBP tag (other, Drosophila, UniProt Q7K1U0 1-254, looked up, Self-assembles into capsid-like structures of about 39.3±5.2 nm; also called His-MBP-dArc1 (before cleavage)) MAQLTQMTNEQLRELIEAVRAAAVGAAGSAAAAGGADASRGKGNFSACTHSFGGTRDHDVVEEFIGNIETYKDVEGISDENALKGISLLFYGMASTWWQGVRKEATTWKEAIALIREHFSPTKPAYQIYMEFFQNKQDDHDPIDTFVIQKRALLAQLPSGRHDEETELDLLFGLLNIKYRKHISRHSVHTFKDLLEQGRIIEHNNQEDEEQLATAKNTRGSKRTTRCTYCSFRGHTFDNCRKRQKDRQEEQHEE", "values": [{"measurement": "binding result", "result": "binds"}]}]}
